Measured values from patent US7799901B2, “Modulators of the function of FAS receptors and other proteins” (Yeda Research and Development Co. Ltd., priority 1995, dated 2010).

T1: p55 TNF receptor (Homo sapiens, UniProt P19438)
T1 construct: human p55 TNF receptor (p55-IC residues 206-426); expressed in transfected cells; host or cells: SFY526 yeast
T1 sequence (P19438 235-455): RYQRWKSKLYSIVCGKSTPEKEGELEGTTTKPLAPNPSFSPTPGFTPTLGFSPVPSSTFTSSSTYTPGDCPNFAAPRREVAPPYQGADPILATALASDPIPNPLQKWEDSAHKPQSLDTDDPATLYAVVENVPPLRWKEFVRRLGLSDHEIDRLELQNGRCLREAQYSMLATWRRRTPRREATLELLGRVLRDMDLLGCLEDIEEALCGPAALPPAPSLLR

T2: mouse Fas-IC (Mus musculus, UniProt P25446)
T2 construct: four constructs of the mouse Fas-IC; expressed in transfected cells; host or cells: SFY526 yeast
T2 sequence (P25446 187-327 limits assumed): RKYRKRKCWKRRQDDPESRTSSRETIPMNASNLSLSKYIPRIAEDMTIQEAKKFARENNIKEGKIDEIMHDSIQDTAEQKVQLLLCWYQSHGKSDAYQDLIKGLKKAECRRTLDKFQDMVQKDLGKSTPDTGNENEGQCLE


Key:
Lamin = assay: Two-hybrid β-galactosidase expression filter assay in SFY526 yeast, DNA-binding domain hybrid Lamin; settings: specificity test
Source text: (§1) To isolate proteins interacting with the intracellular domain of the FAS-R, the yeast two-hybrid system was used (Fields and Song, 1989). […] In this system, the genes for the candidate interacting proteins are cloned into separate expression vectors. In one expression vector, the sequence of the one candidate protein is cloned in phase with the sequence of the GAL4 DNA-binding domain to generate a hybrid protein with the GAL4 DNA-binding-domain, and in the other vector, the sequence of the second candidate protein is cloned in phase with the sequence of the GAL4 activation domain to generate a hybrid protein with the GAL4-activation domain. The two hybrid vectors are then co-transformed into a yeast host strain having a lacZ or HIS3 reporter gene under the control of upstream GAL4 binding sites. […]
The yeast two-hybrid test was further applied to evaluate the specificity of binding of MACH to MORT-1, in particular, to define the region in MORT-1 to which MACH binds, as well as to determine which of the MACH ORFs interacts with MORT-1, the procedures being as set forth herein above in Examples 1 and 2. Briefly, various MORT-1 and MACH constructs were prepared for testing the interaction of the proteins encoded by the Gal4 DNA-binding domain and activation domain constructs within transfected SFY526 yeast cells as assessed by the β-galactosidase expression filter assay. […]

p55 TNF receptor = target: T1, p55 TNF receptor; assay: Two-hybrid test of MORT-1 binding (FIG. 1), p55 TNF receptor; settings: p55-IC residues 206-426, FIG. 1
Source text: as §1, with “sites. Only those transformed host cells (cotransformants) in which the two hybrid proteins are expressed and are capable of interacting with each other, will be capable of expressing the reporter gene. In the case of the lacZ reporter gene, host cells expressing this gene will become blue in color when X-gal is added to the cultures.” for “sites.”
(§2) In FIG. 1, there is depicted the interaction of the proteins encoded by the Gal4 DNA binding domain and activation-domain constructs (pGBT9 and pGAD-GH) within transfected SFY526 yeasts as assessed by β-galactosidase expression filter assay. […]

mouse Fas-IC = target: T2, mouse Fas-IC; assay: Two-hybrid test of MORT-1 binding (FIG. 1), mouse Fas-IC; settings: transfected SFY526 yeasts
Source text: as §1, with “sites. Only those transformed host cells (cotransformants) in which the two hybrid proteins are expressed and are capable of interacting with each other, will be capable of expressing the reporter gene. In the case of the lacZ reporter gene, host cells expressing this gene will become blue in color when X-gal is added to the cultures.” for “sites.”
as §2

Molecule	development of color (interaction with DNA-binding domain hybrid) (Lamin)	binding to p55 TNF receptor in two-hybrid test (p55 TNF receptor)	binding to mouse Fas-IC in two-hybrid test (mouse Fas-IC)
MACHβ1: MACH isoform, cDNA SEQ ID NO: 4, amino acid SEQ ID NO: 5; lacks the CED3/ICE homology region (protein) MDFSRNLYDIGEQLDSEDLASLKFLSLDYIPQRKQEPIKDALMLFQRLQEKRMLEESNLSFLKELLFRINRLDLLITYLNTRKEEMERELQTPGRAQISAYRVMLYQISEEVSRSELRSFKFLLQEEISKCKLDDDMNLLDIFIEMEKRVILGEGKLDILKRVCAQINKSLLKIINDYEEFSKERSSSLEGSPDEFSNDFGQSLPNEKQTSGILSDHQQSQFCKSTGESAQTSQH	−−− (“−−−” indicates the lack of development of color within 24 hrs. of the assay)	–	–
MORT-1: Mediator of Receptor-induced Toxicity; protein binding the intracellular domain of FAS-R, SEQ ID NO:2 (protein) VNQAPECRFGGGILGPLGKRRDLARASEPRTEGARRAGPQPRPLADPAMDPFLVLLHSVSSSLSSSELTELKFLCLGRVVKRKLERVQSGLDLFSMLLEQNDLEPGHTELLRELLASLRRHDLLRRVDDFEAGAAAGAAPGEEDLCAAFNVICDNVGKDWRRLARQLKVSDTKIDSIEDRYPRNLTERVRESLRIWKNTEKENATVAHLVGALRSCQMNLVADLVQEVQQARDLQNRSGAMSPMSWNSDASTSEAS	–	not	binds
